Source: US20150344570A1 (published 2015)

B1: GpH7-A5/GpH7-B3 variant E269_01G/GpL16-k0 (antibody, human IgG1, kappa)
heavy 1: not shown
heavy 2: not shown
light: DIVMTQSPLSLPVTPGEPASISCQASESLVHSNRNTYLHWYLQKPGQSPQLLIYKVSNRFSGVPDRFSGSGSGTDFTLKISRVEAEDVGVYYCSQNTHVPPTFGQGTKVEIERTVAAPSVFIFPPSDEQLKSGTASVVCLLNNFYPREAKVQWKVDNALQSGNSQESVTEQDSKDSTYSLSSTLTLSKADYEKHKVYACEVTHQGLSSPVTKSFNRGEC
notes: Heterodimerized anti-glypican-3 IgG1; mutation in the GpH7-B3 chain only; also called He Ab E269G
B2: GpH7-A5/GpH7-B3 variant S267_05P/GpL16-k0 (antibody, human IgG1, kappa)
heavy 1: not shown
heavy 2: not shown
light: B1 light
notes: Heterodimerized anti-glypican-3 IgG1; mutation in the GpH7-B3 chain only; also called He Ab S267P
B3: GpH7-A5/GpH7-B3 variant S267_14T/GpL16-k0 (antibody, human IgG1, kappa)
heavy 1: not shown
heavy 2: not shown
light: B1 light
notes: He Ab; alteration in one H chain only; also called He Ab
B4: GpH7-A5/GpH7-B3 variant E269_08L/GpL16-k0 (antibody, human IgG1, kappa)
heavy 1: not shown
heavy 2: not shown
light: B1 light
notes: Heterodimerized anti-glypican-3 IgG1; mutation in the GpH7-B3 chain only; also called He Ab E269L
B5: GpH7-A5/GpH7-B3 variant S298_08L/GpL16-k0 (antibody, human IgG1, kappa)
heavy 1: not shown
heavy 2: not shown
light: B1 light
notes: as for B3
B6: GpH7-A5/GpH7-B3 variant S267_20W/GpL16-k0 (antibody, human IgG1, kappa)
heavy 1: not shown
heavy 2: not shown
light: B1 light
notes: as for B3
B7: GpH7-A5/GpH7-B3 variant S267_09D/GpL16-k0 (antibody, human IgG1, kappa)
heavy 1: not shown
heavy 2: not shown
light: B1 light
notes: as for B3
B8: GpH7-A5/GpH7-B3 variant S267_06M/GpL16-k0 (antibody, human IgG1, kappa)
heavy 1: not shown
heavy 2: not shown
light: B1 light
notes: as for B3
B9: GpH7-A5/GpH7-B3 variant E269_13S/GpL16-k0 (antibody, human IgG1, kappa)
heavy 1: not shown
heavy 2: not shown
light: B1 light
notes: Heterodimerized anti-glypican-3 IgG1; mutation in the GpH7-B3 chain only; also called He Ab E269S
B10: GpH7-A5/GpH7-B3 variant H268_11K/GpL16-k0 (antibody, human IgG1, kappa)
heavy 1: not shown
heavy 2: not shown
light: B1 light
notes: Heterodimerized anti-glypican-3 IgG1; mutation in the GpH7-B3 chain only; also called He Ab H268K
B11: GpH7-A5/GpH7-B3 variant E269_15Y/GpL16-k0 (antibody, human IgG1, kappa)
heavy 1: not shown
heavy 2: not shown
light: B1 light
notes: Heterodimerized anti-glypican-3 IgG1; mutation in the GpH7-B3 chain only; also called He Ab E269Y
B12: GpH7-A5/GpH7-B3 variant S267_08L/GpL16-k0 (antibody, human IgG1, kappa)
heavy 1: not shown
heavy 2: not shown
light: B1 light
notes: as for B3
B13: GpH7-A5/GpH7-B3 variant E269_12R/GpL16-k0 (antibody, human IgG1, kappa)
heavy 1: not shown
heavy 2: not shown
light: B1 light
notes: Heterodimerized anti-glypican-3 IgG1; mutation in the GpH7-B3 chain only; also called He Ab E269R
B14: GpH7-A5/GpH7-B3 variant H268_07I/GpL16-k0 (antibody, human IgG1, kappa)
heavy 1: not shown
heavy 2: not shown
light: B1 light
notes: Heterodimerized anti-glypican-3 IgG1; mutation in the GpH7-B3 chain only; also called He Ab H268I
B15: GpH7-A5/GpH7-B3 variant H268_08L/GpL16-k0 (antibody, human IgG1, kappa)
heavy 1: not shown
heavy 2: not shown
light: B1 light
notes: Heterodimerized anti-glypican-3 IgG1; mutation in the GpH7-B3 chain only; also called He Ab H268L
B16: GpH7-A5/GpH7-B3 variant S267_16H/GpL16-k0 (antibody, human IgG1, kappa)
heavy 1: not shown
heavy 2: not shown
light: B1 light
notes: as for B3
B17: GpH7-A5/GpH7-B3 variant S267_04F/GpL16-k0 (antibody, human IgG1, kappa)
heavy 1: not shown
heavy 2: not shown
light: B1 light
notes: Heterodimerized anti-glypican-3 IgG1; mutation in the GpH7-B3 chain only; also called He Ab S267F
B18: GpH7-A5/GpH7-B3 variant V266_20W/GpL16-k0 (antibody, human IgG1, kappa)
heavy 1: not shown
heavy 2: not shown
light: B1 light
notes: as for B3
B19: GpH7-A5/GpH7-B3 variant S267_04F/GpL16-k0 (antibody, human IgG1, kappa)
heavy 1: not shown
heavy 2: not shown
light: B1 light
notes: as for B3
B20: GpH7-A5/GpH7-B3 variant E269_14T/GpL16-k0 (antibody, human IgG1, kappa)
heavy 1: not shown
heavy 2: not shown
light: B1 light
notes: Heterodimerized anti-glypican-3 IgG1; mutation in the GpH7-B3 chain only; also called He Ab E269T

Legend:
[1] = molecular target: T1, FcγRIa extracellular domain with C-terminal His tag (human, UniProt P12314 16-292); assay: SPR Biacore, antibody captured on antigen-peptide chip, FcγR as analyte
T1 construct: extracellular domain; Soluble receptor used as analyte in Biacore; also called FcgRI; FcgRIa

[2] = molecular target: T2, FcγRIIb extracellular domain with C-terminal His tag (human, UniProt P31994 43-217); assay: as above
T2 construct: extracellular domain; Soluble receptor used as analyte in Biacore; also called FcgRIIb; CD32B
T2 sequence (looked up): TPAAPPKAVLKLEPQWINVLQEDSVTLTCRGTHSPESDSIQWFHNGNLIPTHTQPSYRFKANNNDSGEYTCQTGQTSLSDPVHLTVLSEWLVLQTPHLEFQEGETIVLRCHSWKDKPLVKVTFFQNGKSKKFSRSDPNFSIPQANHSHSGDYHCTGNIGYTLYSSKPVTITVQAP

[3] = molecular target: T3, FcγRIIa H (FcgRIIa type H, His at position 131), extracellular domain with C-terminal His tag (human, UniProt P12318 34-217); assay: SPR (Biacore), relative binding, GpH7-A5/GpH7-B3/GpL16-k0 = 100
T3 construct: extracellular domain; also called 2aH; FcgRIIa H; not shown: His tag at the C terminus
T3 sequence (looked up): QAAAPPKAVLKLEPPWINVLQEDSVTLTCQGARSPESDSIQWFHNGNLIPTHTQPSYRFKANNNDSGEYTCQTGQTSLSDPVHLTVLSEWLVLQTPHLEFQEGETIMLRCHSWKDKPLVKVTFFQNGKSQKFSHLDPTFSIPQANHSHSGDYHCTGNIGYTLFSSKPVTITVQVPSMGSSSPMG

[4] = molecular target: T4, FcγRIIb, extracellular domain with C-terminal His tag (human, UniProt P31994 43-217); assay: as above
T4 construct: extracellular domain; also called 2b; FcgRIIb; not shown: His tag at the C terminus
T4 sequence (looked up): T2 sequence (looked up)

[5] = molecular target: T3, FcγRIIa H (FcgRIIa type H, His at …); assay: SPR; He/Con_2aH divided by He/Con_2b (FcγRIIa H binding over FcγRIIb binding)

T1 sequence (P12314 16-292): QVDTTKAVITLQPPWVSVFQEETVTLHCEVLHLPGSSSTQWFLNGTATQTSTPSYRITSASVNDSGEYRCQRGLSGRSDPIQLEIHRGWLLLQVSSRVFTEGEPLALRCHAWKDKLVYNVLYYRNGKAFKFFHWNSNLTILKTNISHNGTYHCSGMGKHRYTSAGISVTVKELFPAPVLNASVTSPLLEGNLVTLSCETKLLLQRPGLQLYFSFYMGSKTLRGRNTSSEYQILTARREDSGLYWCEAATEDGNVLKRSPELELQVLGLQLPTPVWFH

| Binder | He/Con_1a [1] | He/Con_2b [2] | He/Con_2aH [3] | He/Con_2b [4] | He_2aH/2b (IIaH/IIb) [5] |
| --- | --- | --- | --- | --- | --- |
| B1 | 104 relative, GpH7-A5/GpH7-B3/GpL16-k0 = 100 | 51.5 relative, GpH7-A5/GpH7-B3/GpL16-k0 = 100 | – | – | – |
| B2 | 91.8 relative, GpH7-A5/GpH7-B3/GpL16-k0 = 100 | 31.5 relative, GpH7-A5/GpH7-B3/GpL16-k0 = 100 | – | – | – |
| B3 | – | – | 63.3 % of control | 104 % of control | 0.61 ratio |
| B4 | 104 relative, GpH7-A5/GpH7-B3/GpL16-k0 = 100 | 42.9 relative, GpH7-A5/GpH7-B3/GpL16-k0 = 100 | – | – | – |
| B5 | – | – | 85 % of control | 108 % of control | 0.78 ratio |
| B6 | – | – | 37.9 % of control | 57.2 % of control | 0.66 ratio |
| B7 | – | – | 105 % of control | 310 % of control | 0.34 ratio |
| B8 | – | – | 34.3 % of control | 210 % of control | 0.16 ratio |
| B9 | 103 relative, GpH7-A5/GpH7-B3/GpL16-k0 = 100 | 47.8 relative, GpH7-A5/GpH7-B3/GpL16-k0 = 100 | – | – | – |
| B10 | 106 relative, GpH7-A5/GpH7-B3/GpL16-k0 = 100 | 83 relative, GpH7-A5/GpH7-B3/GpL16-k0 = 100 | – | – | – |
| B11 | 106 relative, GpH7-A5/GpH7-B3/GpL16-k0 = 100 | 44.7 relative, GpH7-A5/GpH7-B3/GpL16-k0 = 100 | – | – | – |
| B12 | – | – | 29 % of control | 109 % of control | 0.27 ratio |
| B13 | 97.1 relative, GpH7-A5/GpH7-B3/GpL16-k0 = 100 | 25.2 relative, GpH7-A5/GpH7-B3/GpL16-k0 = 100 | – | – | – |
| B14 | 108 relative, GpH7-A5/GpH7-B3/GpL16-k0 = 100 | 88.9 relative, GpH7-A5/GpH7-B3/GpL16-k0 = 100 | – | – | – |
| B15 | 107 relative, GpH7-A5/GpH7-B3/GpL16-k0 = 100 | 67.8 relative, GpH7-A5/GpH7-B3/GpL16-k0 = 100 | – | – | – |
| B16 | – | – | 29.8 % of control | 65.9 % of control | 0.45 ratio |
| B17 | 97.7 relative, GpH7-A5/GpH7-B3/GpL16-k0 = 100 | 48 relative, GpH7-A5/GpH7-B3/GpL16-k0 = 100 | – | – | – |
| B18 | – | – | 12 % of control | 71.9 % of control | 0.17 ratio |
| B19 | – | – | 22.7 % of control | 48 % of control | 0.47 ratio |
| B20 | 106 relative, GpH7-A5/GpH7-B3/GpL16-k0 = 100 | 50.6 relative, GpH7-A5/GpH7-B3/GpL16-k0 = 100 | – | – | – |
